Square brackets hold non-standard residues; d marks the D form. Ends that are not written are not given here. Nle = CCCC[C@H](N)C(=O)O; Aib = CC(C)(N)C(=O)O
B1: P257 (cyclic PEGylated VPAC2 receptor peptide agonist) (peptide)
peptide: HSDAVFTENYTKL[Aib]KQ[Nle]AAKKYLNDLKKGGPSSGAPPPC
modifications: ends and bridges not checked; also: further groups not given here
B2: P348 (cyclic PEGylated VPAC2 receptor peptide agonist) (peptide)
peptide: HSDAVFTENYTKLR[Aib]Q[Nle]AAKKYLNDLK[Aib]KGGPSSGAPPPC
modifications: also: further groups not given here

What was measured:
human VPAC2 receptor [1] = biological target: T1, human VPAC2 receptor (human, UniProt P41587 24-438); experiment: filter binding assay, human VPAC2 membranes, displacement of 125I-VIP
T1 construct: whole, on cells; cAMP Alpha screen assay: whole cells
T1 sequence (looked up): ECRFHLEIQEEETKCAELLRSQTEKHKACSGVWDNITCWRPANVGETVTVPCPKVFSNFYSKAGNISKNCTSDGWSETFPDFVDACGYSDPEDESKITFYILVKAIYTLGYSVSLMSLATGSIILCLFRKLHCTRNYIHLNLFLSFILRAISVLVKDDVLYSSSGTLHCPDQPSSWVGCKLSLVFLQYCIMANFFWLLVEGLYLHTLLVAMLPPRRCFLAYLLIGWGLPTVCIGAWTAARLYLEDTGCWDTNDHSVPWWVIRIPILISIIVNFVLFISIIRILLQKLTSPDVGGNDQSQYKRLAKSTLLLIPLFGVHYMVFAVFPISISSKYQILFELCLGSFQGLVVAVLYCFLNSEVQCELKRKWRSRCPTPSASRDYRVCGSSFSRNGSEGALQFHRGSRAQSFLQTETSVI
Experimental: The assay plate is filled with 25 μL assay buffer, 25 μL membranes (2.5 μg) suspended in assay buffer, 25 μL compound (agonist) in assay buffer, and 25 μL tracer (about 40000 cpm) in assay buffer. The filled plate is incubated for 1 hour with shaking.
The transfer from assay plate to filter plate is conducted. The blocking buffer is aspirated by vacuum filtration and washed two times with flush buffer. 90 μL is transferred from the assay plate to the filter plate. The 90 μL transferred from assay plate is aspirated and washed three times with 200 μL flush buffer. The plastic support is removed. It is dried for 1 hour at 60° C. 30 μL Microscint is added. The count is performed.

rat VPAC1 receptor = biological target: T2, rat VPAC1 receptor (rat, UniProt P30083 31-459); experiment: cell-based or functional assay
T2 sequence (looked up): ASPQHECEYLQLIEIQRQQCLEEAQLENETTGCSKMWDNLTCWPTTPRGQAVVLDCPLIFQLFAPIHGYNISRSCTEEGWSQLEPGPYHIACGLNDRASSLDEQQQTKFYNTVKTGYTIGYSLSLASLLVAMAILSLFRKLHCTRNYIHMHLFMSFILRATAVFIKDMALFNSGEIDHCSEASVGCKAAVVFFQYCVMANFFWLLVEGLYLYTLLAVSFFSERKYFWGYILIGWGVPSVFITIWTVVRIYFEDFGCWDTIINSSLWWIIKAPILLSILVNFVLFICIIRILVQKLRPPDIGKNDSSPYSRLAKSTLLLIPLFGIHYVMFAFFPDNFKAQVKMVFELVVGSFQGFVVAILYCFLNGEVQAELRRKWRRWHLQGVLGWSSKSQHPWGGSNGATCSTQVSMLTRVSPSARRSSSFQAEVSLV

rat VPAC2 receptor = biological target: T3, rat VPAC2 receptor (rat, UniProt P35000 23-437); experiment: cell-based or functional assay
T3 sequence (looked up): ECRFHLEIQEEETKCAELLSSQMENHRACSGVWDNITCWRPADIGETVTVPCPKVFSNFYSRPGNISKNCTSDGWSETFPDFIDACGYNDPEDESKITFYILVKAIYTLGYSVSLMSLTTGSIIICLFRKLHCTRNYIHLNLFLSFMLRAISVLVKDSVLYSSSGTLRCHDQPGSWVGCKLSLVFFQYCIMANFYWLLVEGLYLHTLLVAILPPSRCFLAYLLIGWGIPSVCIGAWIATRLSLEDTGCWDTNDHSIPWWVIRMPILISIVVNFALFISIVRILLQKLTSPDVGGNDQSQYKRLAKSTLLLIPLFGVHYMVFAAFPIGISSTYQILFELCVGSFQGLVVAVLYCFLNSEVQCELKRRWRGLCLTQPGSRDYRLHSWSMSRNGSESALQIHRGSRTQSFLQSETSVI

human VPAC2 receptor [2] = biological target: T1, human VPAC2 receptor; experiment: cell-based or functional assay

Binder	IC50 (human VPAC2 receptor [1])	EC50 for cAMP generation, DiscoveRx, CHO-PO cells (rat VPAC1 receptor)	EC50 for cAMP generation, DiscoveRx, CHO-PO cells (rat VPAC2 receptor)	EC50 for cAMP generation, Alpha screen (human VPAC2 receptor [2])
B1	32.7 nM	> 1000 nM	37.9 nM	42.2 nM
B2	3.54 nM	36.9 nM	3.26 nM	5.82 nM

Source: patent US20090118167A1, “Selective Vpac2 Receptor Peptide Agonists” (Eli Lilly and Company Patent Division, priority 2004, published 2009)
